Test results taken from patent US6900177.
Non-standard residues stand in square brackets, D forms with d. No end group written: not given here.

Molecular target: T1, lecithin:cholesterol acyltransferase (LCAT), purified from human plasma (human, UniProt P04180 25-440)
T1 sequence (looked up): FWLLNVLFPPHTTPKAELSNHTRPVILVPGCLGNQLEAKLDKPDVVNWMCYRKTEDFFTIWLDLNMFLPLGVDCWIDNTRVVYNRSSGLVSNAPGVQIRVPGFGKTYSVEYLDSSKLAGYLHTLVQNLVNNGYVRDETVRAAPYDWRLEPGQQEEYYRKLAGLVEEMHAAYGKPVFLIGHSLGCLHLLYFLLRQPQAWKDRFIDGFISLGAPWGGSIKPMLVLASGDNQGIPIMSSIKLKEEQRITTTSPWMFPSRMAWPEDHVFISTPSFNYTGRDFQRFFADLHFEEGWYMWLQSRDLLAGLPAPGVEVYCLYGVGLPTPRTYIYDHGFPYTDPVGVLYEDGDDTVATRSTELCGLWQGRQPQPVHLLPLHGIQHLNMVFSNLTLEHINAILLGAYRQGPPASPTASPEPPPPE
Assay: cell-based or functional assay

For [dP][dV]LDLFRELLNELLEALKQKLK [peptide 48], the “ACTIVITY (%) LCAT” value was 22%.
